Source: PMC300677

Biological target: isolated iron-loaded transferrin C-lobe (Fe-C-lobe)
Assay: biosensor binding assay (SPR), equilibrium analysis

| Kd (KD1) [µM] | ratio to parent (KD1) | Kd (KD2) [µM] | ratio to parent (KD2) | ratio to parent (KD1, KD2 relative to wild-type, single entry) | Substance |
| --- | --- | --- | --- | --- | --- |
| 1 | 1.2 | 2.6 | 0.8 |  | soluble human transferrin receptor 1 (TfR) ectodomain, wild type (from UniProt P02786) D125K |
| 1.9 | 2.4 | 2.7 | 0.8 |  | soluble human transferrin receptor 1 (TfR) ectodomain, wild type (from UniProt P02786) F760A |
|  |  |  |  | > 1000 | soluble human transferrin receptor 1 (TfR) ectodomain, wild type (from UniProt P02786) R651A |
| 0.8 | 1 | 5.7 | 1.7 |  | soluble human transferrin receptor 1 (TfR) ectodomain, wild type (from UniProt P02786) Y123S |
